Source: the supplement of paper PMC11246515
± gives the standard deviation of the averaged measurements.

Experiment: total protein half-life in vivo (active degradation + dilution); higher = more stable protein
[1] = E. coli NCM3722 delta-clpP delta-lon delta-hslV, growth: N-lim chemostat, doubling time 6 h
[2] = E. coli NCM3722 delta-clpP, growth: N-lim chemostat, doubling time 6 h
[3] = E. coli NCM3722 delta-hslV, growth: N-lim chemostat, doubling time 6 h
[4] = E. coli NCM3722 delta-smpB, growth: N-lim chemostat, doubling time 6 h
[5] = wild type E. coli NCM3722, growth: C-lim chemostat, doubling time 3 h
[6] = wild type E. coli NCM3722, growth: C-lim chemostat, doubling time 6 h
[7] = wild type E. coli NCM3722, growth: C-lim chemostat, doubling time 12 h
[8] = wild type E. coli NCM3722, growth: N-lim chemostat, doubling time 6 h
[9] = wild type E. coli NCM3722, growth: N-lim chemostat, doubling time 12 h
[10] = wild type E. coli NCM3722, growth: P-lim chemostat, doubling time 6 h
[11] = wild type E. coli NCM3722, growth: P-lim chemostat, doubling time 12 h
[12] = E. coli NCM3722 delta-lon, growth: N-lim chemostat, doubling time 6 h

| Sequence | total protein half-life in vivo [1] [h] | total protein half-life in vivo [2] [h] | total protein half-life in vivo [3] [h] | total protein half-life in vivo [4] [h] | total protein half-life in vivo [5] [h] | total protein half-life in vivo [6] [h] | total protein half-life in vivo [7] [h] | total protein half-life in vivo [8] [h] | total protein half-life in vivo [9] [h] | total protein half-life in vivo [10] [h] | total protein half-life in vivo [11] [h] | total protein half-life in vivo [12] [h] |
| --- | --- | --- | --- | --- | --- | --- | --- | --- | --- | --- | --- | --- |
| MSQRITIDPVTRIEGHLRIDCEIENGVVSKAWASGTMWRGMEEIVKNRDPRDAWMIVQRICGVCTTTHALSSVRAAESALNIDVPVNAQYIRNIILAAHTTHDHIVHFYQLSALDWVDITSALQADPTKASEMLKGVSTWHLNSPEEFTKVQNKIKDLVASGQLGIFANGYWGHPAMKLPPEVNLIAVAHYLQALECQRDANRVVALLGGKTPHIQNLAVGGVANPINLDGLGVLNLERLMYIKSFIDKLSDFVEQVYKVDTAVIAAFYPEWLTRGKGAVNYLSVPEFPTDSKNGSFLFPGGYIENADLSSYRPITSHSDEYLIKGIQESAKHSWYKDEAPQAPWEGTTIPAYDGWSDDGKYSWVKSPTFYGKTVEVGPLANMLVKLAAGRESTQNKLNEIVAIYQKLTGNTLEVAQLHSTLGRIIGRTVHCCELQDILQNQYSALITNIGKGDHTTFVKPNIPATGEFKGVGFLEAPRGMLSHWMVIKDGIISNYQAVVPSTWNSGPRNFNDDVGPYEQSLVGTPVADPNKPLEVVRTIHSFDPCMACAVHVVDADGNEVVSVKVL [P0ACE0] | 5.01 ± 1.1 | 4.55 ± 1.2 | 3.87 ± 1.6 | 2.6 ± 0.2 | 2.07 ± 0.18 | 4.37 ± 1 | 7.59 ± 2.3 | 3.47 ± 0.036 | 4.62 | 4.92 ± 2.1 | 10.7 ± 4.1 | – |
| MSQSEFDSALPNGIGLAPYLRMKQEGMTENESRIVEWLLKPGNLSCAPAIKDVAEALAVSEAMIVKVSKLLGFSGFRNLRSALEDYFSQSEQVLPSELAFDEAPQDVVNKVFNITLRTIMEGQSIVNVDEIHRAARFFYQARQRDLYGAGGSNAICADVQHKFLRIGVRCQAYPDAHIMMMSASLLQEGDVVLVVTHSGRTSDVKAAVELAKKNGAKIICITHSYHSPIAKLADYIICSPAPETPLLGRNASARILQLTLLDAFFVSVAQLNIEQANINMQKTGAIVDFFSPGALK [P0ACS7] | 6.33 ± 0.37 | 6 ± 0.24 | 5.5 ± 0.74 | 5.56 ± 0.55 | 3.07 ± 0.4 | 6.86 ± 0.23 | 14.6 ± 1.1 | 5.77 ± 0.44 | 11.3 ± 1.8 | 6.09 ± 0.2 | 12.5 ± 1.1 | 5.71 |
| MSQVQFSHNPLFCIDIIKTYKPDFTPRVAFILGSGLGALADQIENAVAISYEKLPGFPVSTVHGHAGELVLGHLQGVPVVCMKGRGHFYEGRGMTIMTDAIRTFKLLGCELLFCTNAAGSLRPEVGAGSLVALKDHINTMPGTPMVGLNDDRFGERFFSLANAYDAEYRALLQKVAKEEGFPLTEGVFVSYPGPNFETAAEIRMMQIIGGDVVGMSVVPEVISARHCDLKVVAVSAITNMAEGLSDVKLSHAQTLAAAELSKQNFINLICGFLRKIA | 5.56 ± 0.68 | – | – | 1.93 ± 0.26 | 2 | – | 6.43 | – | – | 2.34 | 5.82 | – |
| MSQVSLSQQLKEGNLFAEQCPSREVLKHVTSRWGVLILVALREGTHRFSDLRRKIGGVSEKMLAQSLQALEQDGFLNRIAYPVVPPHVEYSLTPLGEQVSEKVAALADWIELNLPEVLAVRDERAA [P0ACN2] | 4.79 | – | – | 2.12 | 2.01 | 3.02 ± 0.26 | 3.86 | – | – | – | – | 2.18 |
| MSQVTENKVISAPVPMTPLQEFWHYFKRNKGAVVGLVYVVIVLFIAIFANWIAPYNPAEQFRDALLAPPAWQEGGSMAHLLGTDDVGRDVLSRLMYGARLSLLVGCLVVVLSLIMGVILGLIAGYFGGLVDNIIMRVVDIMLALPSLLLALVLVAIFGPSIGNAALALTFVALPHYVRLTRAAVLVEVNRDYVTASRVAGAGAMRQMFINIFPNCLAPLIVQASLGFSNAILDMAALGFLGMGAQPPTPEWGTMLSDVLQFAQSAWWVVTFPGLAILLTVLAFNLMGDGLRDALDPKLKQ [P0AEG1] | 6.11 | 5.53 ± 0.37 | 6.45 | 5.93 ± 0.46 | 3.47 | > 8 | 12.6 ± 2.1 | 6.39 ± 0.51 | 10.9 ± 2 | 6.16 ± 0.14 | 10.8 ± 2.3 | 6.14 ± 1 |
| MSRIEAVFFDCDGTLVDSEVICSRAYVTMFQEFGITLDPEEVFKRFKGVKLYEIIDIVSLEHGVTLAKTEAEHVYRAEVARLFDSELEAIEGAGALLSAITAPMCVVSNGPNNKMQHSMGKLNMLHYFPDKLFSGYDIQRWKPDPALMFHAAKAMNVNVENCILVDDSVAGAQSGIDAGMEVFYFCADPHNKPIVHPKVTTFTHLSQLPELWKARGWDITA | – | – | – | – | 2.09 | 4.76 | 9.19 | – | 2.64 | – | – | 2.73 |
| MSRKQLALFEPTLVVQALKEAVKKLNPQAQWRNPVMFIVWIGSLLTTCISIAMASGAMPGNALFSAAISGWLWITVLFANFAEALAEGRSKAQANSLKGVKKTAFARKLREPKYGAAADKVPADQLRKGDIVLVEAGDIIPCDGEVIEGGASVDESAITGESAPVIRESGGDFASVTGGTRILSDWLVIECSVNPGETFLDRMIAMVEGAQRRKTPNEIALTILLIALTIVFLLATATLWPFSAWGGNAVSVTVLVALLVCLIPTTIGGLLSAIGVAGMSRMLGANVIATSGRAVEAAGDVDVLLLDKTGTITLGNRQASEFIPAQGVDEKTLADAAQLASLADETPEGRSIVILAKQRFNLRERDVQSLHATFVPFTAQSRMSGINIDNRMIRKGSVDAIRRHVEANGGHFPTDVDQKVDQVARQGATPLVVVEGSRVLGVIALKDIVKGGIKERFAQLRKMGIKTVMITGDNRLTAAAIAAEAGVDDFLAEATPEAKLALIRQYQAEGRLVAMTGDGTNDAPALAQADVAVAMNSGTQAAKEAGNMVDLDSNPTKLIEVVHIGKQMLMTRGSLTTFSIANDVAKYFAIIPAAFAATYPQLNALNIMCLHSPDSAILSAVIFNALIIVFLIPLALKGVSYKPLTASAMLRRNLWIYGLGGLLVPFIGIKVIDLLLTVCGLV | – | 5.05 | 5.02 | 3.79 | 2.79 | – | 11.5 | – | 7.13 ± 1.7 | 7.01 ± 1.2 | 10.4 ± 0.27 | 6.41 |
| MSRLSPVNQARWARFRHNRRGYWSLWIFLVLFGLSLCSELIANDKPLLVRYDGSWYFPLLKNYSESDFGGPLASQADYQDPWLKQRLENNGWVLWAPIRFGATSINFATNKPFPSPPSRQNWLGTDANGGDVLARILYGTRISVLFGLMLTLCSSVMGVLAGALQGYYGGKVDLWGQRFIEVWSGMPTLFLIILLSSVVQPNFWWLLAITVLFGWMSLVGVVRAEFLRTRNFDYIRAAQALGVSDRSIILRHMLPNAMVATLTFLPFILCSSITTLTSLDFLGFGLPLGSPSLGELLLQGKNNLQAPWLGITAFLSVAILLSLLIFIGEAVRDAFDPNKAV | 6 | 6.1 | – | 5.43 ± 0.61 | – | – | – | 6.44 | – | – | 13.2 | – |
